Experimental data published in PMC9482650, “Quantitative fragmentomics allow affinity mapping of interactomes” (Nature Communications, 2022).
Numbering of substitutions follows the chain as printed.

Experiments:
Assay in all cases: holdup assay
Design in all cases: key: below the threshold = too weak to quantify, mostly under pKd 3.1 to 4
Conditions in all cases: plain residues with an end cap or a label only (N-terminal biotin on a linker: ttds)
APBA1_2, Q02410 = molecular target: T1, APBA1_2, Q02410
T1 sequence (Q02410 742-832, limits assumed, looked up): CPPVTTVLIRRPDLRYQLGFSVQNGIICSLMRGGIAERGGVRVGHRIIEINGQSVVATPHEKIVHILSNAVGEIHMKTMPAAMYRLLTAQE

APBA2_2, Q99767 = molecular target: T2, APBA2_2, Q99767
T2 sequence (Q99767 654-744, limits assumed, looked up): T1 sequence (Q02410 742-832, limits assumed, looked up) with R10K, R15K, P59A, H65Q, I66A, A70S, Y84F, A89G

ARHGEF11, O15085 = molecular target: T3, ARHGEF11, O15085
T3 sequence (O15085 42-136, limits assumed, looked up): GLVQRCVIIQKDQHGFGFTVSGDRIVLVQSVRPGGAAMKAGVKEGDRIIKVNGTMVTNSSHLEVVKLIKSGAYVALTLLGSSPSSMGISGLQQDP

DLG4_1, P78352 = molecular target: DLG4_1, P78352
DLG4_1, P78352, sequence (P78352 62-152): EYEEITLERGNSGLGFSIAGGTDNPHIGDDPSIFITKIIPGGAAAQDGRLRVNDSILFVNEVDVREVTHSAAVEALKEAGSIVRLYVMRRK

DLG4_2, P78352 = molecular target: DLG4_2, P78352
DLG4_2, P78352, sequence (P78352 155-259): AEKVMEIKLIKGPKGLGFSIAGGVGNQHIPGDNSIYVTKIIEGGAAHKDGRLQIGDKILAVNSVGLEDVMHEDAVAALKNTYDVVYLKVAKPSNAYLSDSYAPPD

GIPC2, Q8TF65 = molecular target: GIPC2, Q8TF65
GIPC2, Q8TF65, sequence (Q8TF65 112-203): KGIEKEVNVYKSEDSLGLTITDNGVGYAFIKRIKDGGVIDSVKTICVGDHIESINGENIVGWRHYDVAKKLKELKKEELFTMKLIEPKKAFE

GRIP1_2, Q9Y3R0 = molecular target: T4, GRIP1_2, Q9Y3R0
T4 sequence (Q9Y3R0 145-248, limits assumed, looked up): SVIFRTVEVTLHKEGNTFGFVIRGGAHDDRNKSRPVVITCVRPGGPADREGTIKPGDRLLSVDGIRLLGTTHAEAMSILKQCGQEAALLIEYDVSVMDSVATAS

GRIP2_4, Q9C0E4 = molecular target: GRIP2_4, Q9C0E4
GRIP2_4, Q9C0E4, sequence (Q9C0E4 446-548): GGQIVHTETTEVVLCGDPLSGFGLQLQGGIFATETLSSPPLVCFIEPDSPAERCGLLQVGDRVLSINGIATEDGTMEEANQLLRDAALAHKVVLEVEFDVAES

IL16_4, Q14005 = molecular target: IL16_4, Q14005
IL16_4, Q14005, sequence (Q14005 1229-1329): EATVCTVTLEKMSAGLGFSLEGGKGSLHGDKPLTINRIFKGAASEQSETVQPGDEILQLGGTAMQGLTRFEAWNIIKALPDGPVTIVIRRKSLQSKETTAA

Inadl_2, Q8NI35 = molecular target: Inadl_2, Q8NI35
Inadl_2, Q8NI35, sequence (Q8NI35 238-335): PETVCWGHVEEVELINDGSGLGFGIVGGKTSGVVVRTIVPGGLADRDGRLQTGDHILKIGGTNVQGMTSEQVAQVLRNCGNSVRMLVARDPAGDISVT

Inadl_4, Q8NI35 = molecular target: Inadl_4, Q8NI35
Inadl_4, Q8NI35, sequence (Q8NI35 547-651): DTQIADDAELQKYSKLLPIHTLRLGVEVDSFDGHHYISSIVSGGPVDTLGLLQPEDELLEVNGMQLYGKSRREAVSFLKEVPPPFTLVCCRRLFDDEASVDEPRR

Inadl_8, Q8NI35 = molecular target: Inadl_8, Q8NI35
Inadl_8, Q8NI35, sequence (Q8NI35 1425-1530): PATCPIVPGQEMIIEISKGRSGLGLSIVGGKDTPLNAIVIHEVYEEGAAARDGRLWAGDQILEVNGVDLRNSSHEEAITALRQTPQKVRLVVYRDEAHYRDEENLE

LIN7A, O14910 = molecular target: T5, LIN7A, O14910
T5 sequence (O14910 103-200, limits assumed, looked up): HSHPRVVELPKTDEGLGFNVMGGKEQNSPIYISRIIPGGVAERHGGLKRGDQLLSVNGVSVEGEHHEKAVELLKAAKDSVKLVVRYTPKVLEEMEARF

LNX2_2, Q8N448 = molecular target: T6, LNX2_2, Q8N448
T6 sequence (Q8N448 334-432, limits assumed, looked up): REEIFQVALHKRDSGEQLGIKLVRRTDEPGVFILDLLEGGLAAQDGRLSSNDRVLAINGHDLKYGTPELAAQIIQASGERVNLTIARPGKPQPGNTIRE

MAGI1_1, Q96QZ7 = molecular target: MAGI1_1, Q96QZ7
MAGI1_1, Q96QZ7, sequence (Q96QZ7 1-106): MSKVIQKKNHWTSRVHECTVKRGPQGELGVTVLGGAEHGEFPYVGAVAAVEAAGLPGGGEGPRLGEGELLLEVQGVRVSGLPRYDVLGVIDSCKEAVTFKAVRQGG

MPP7, Q5T2T1 = molecular target: T7, MPP7, Q5T2T1
T7 sequence (Q5T2T1 134-230, limits assumed, looked up): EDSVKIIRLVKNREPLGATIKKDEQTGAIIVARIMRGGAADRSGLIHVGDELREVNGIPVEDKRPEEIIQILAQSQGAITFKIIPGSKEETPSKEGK

NHERF3_3, Q5T2W1 = molecular target: T8, NHERF3_3, Q5T2W1
T8 sequence (Q5T2W1 238-333, limits assumed, looked up): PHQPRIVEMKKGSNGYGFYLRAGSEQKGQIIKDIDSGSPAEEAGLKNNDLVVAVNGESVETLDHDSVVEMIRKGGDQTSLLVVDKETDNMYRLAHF

NOS1, P29475 = molecular target: NOS1, P29475
NOS1, P29475, sequence (P29475 9-101): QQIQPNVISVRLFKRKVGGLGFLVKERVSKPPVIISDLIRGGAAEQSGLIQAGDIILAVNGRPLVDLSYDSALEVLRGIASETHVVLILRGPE

PARD3_3, Q8TEW0 = molecular target: PARD3_3, Q8TEW0
PARD3_3, Q8TEW0, sequence (Q8TEW0 582-685): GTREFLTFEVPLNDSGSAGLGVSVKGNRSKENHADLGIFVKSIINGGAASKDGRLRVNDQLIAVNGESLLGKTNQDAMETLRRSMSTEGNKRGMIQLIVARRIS

PDZRN4_1, Q6ZMN7 = molecular target: PDZRN4_1, Q6ZMN7
PDZRN4_1, Q6ZMN7, sequence (Q6ZMN7 213-318): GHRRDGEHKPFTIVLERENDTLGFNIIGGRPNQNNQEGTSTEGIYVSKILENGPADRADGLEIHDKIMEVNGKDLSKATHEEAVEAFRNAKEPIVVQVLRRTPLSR

PICK1, Q9NRD5 = molecular target: PICK1, Q9NRD5
PICK1, Q9NRD5, sequence (Q9NRD5 17-115): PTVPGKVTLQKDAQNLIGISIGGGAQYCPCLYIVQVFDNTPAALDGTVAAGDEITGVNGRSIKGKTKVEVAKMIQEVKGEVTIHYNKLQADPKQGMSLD

PTPN13_1, Q12923 = molecular target: T9, PTPN13_1, Q12923
T9 sequence (Q12923 1088-1188, limits assumed, looked up): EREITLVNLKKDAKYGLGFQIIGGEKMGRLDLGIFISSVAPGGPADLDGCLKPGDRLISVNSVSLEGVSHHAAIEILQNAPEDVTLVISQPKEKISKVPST

SNTA1, Q13424 = molecular target: T10, SNTA1, Q13424
T10 sequence (Q13424 82-180, limits assumed, looked up): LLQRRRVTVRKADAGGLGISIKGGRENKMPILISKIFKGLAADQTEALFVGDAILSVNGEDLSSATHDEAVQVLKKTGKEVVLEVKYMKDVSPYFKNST

SNTG1, Q9NSN8 = molecular target: T11, SNTG1, Q9NSN8
T11 sequence (Q9NSN8 52-150, limits assumed, looked up): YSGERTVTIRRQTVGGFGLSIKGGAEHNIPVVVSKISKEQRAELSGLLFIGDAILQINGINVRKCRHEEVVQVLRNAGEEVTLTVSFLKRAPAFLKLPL

SNX27, Q96L92 = molecular target: SNX27, Q96L92
SYNJ2BP, P57105 = molecular target: T12, SYNJ2BP, P57105
T12 sequence (P57105 8-110, limits assumed, looked up): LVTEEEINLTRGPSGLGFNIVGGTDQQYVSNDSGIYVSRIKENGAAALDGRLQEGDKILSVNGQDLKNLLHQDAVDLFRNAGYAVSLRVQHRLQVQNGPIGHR

Row | Binder | pKd (APBA1_2, Q02410) | pKd (APBA2_2, Q99767) | pKd (ARHGEF11, O15085) | pKd (DLG4_1, P78352) | pKd (DLG4_2, P78352) | pKd (GIPC2, Q8TF65) | pKd (GRIP1_2, Q9Y3R0) | pKd (GRIP2_4, Q9C0E4) | pKd (IL16_4, Q14005) | pKd (Inadl_2, Q8NI35) | pKd (Inadl_4, Q8NI35) | pKd (Inadl_8, Q8NI35) | pKd (LIN7A, O14910) | pKd (LNX2_2, Q8N448) | pKd (MAGI1_1, Q96QZ7) | pKd (MPP7, Q5T2T1) | pKd (NHERF3_3, Q5T2W1) | pKd (NOS1, P29475) | pKd (PARD3_3, Q8TEW0) | pKd (PDZRN4_1, Q6ZMN7) | further results
1 | PVRVCEETSL [OTULIN, Q96BN8] | 3.95 | 3.51 | 4.63 | 4.11 | 4.2 | 4.02 | 3.69 | 3.53 | 3.66 | below the threshold | below the threshold | 3.61 | 3.47 | below the threshold | below the threshold | below the threshold | below the threshold | 3.79 | 3.59 | 5.23 | pKd (PICK1, Q9NRD5): below the threshold; pKd (PTPN13_1, Q12923): below the threshold; pKd (SNTA1, Q13424): 4.53; pKd (SNTG1, Q9NSN8): 4.28; pKd (SNX27, Q96L92): 5.58; pKd (SYNJ2BP, P57105): 4.74
2 | FHPLGADSQV [SLC2A1, P11166] | below the threshold | below the threshold | below the threshold | 3.51 | 3.95 | 3.5 | below the threshold | below the threshold | below the threshold | below the threshold | below the threshold | below the threshold | below the threshold | below the threshold | below the threshold | below the threshold | below the threshold | 3.49 | below the threshold | below the threshold | pKd (PICK1, Q9NRD5): below the threshold; pKd (PTPN13_1, Q12923): below the threshold; pKd (SNTA1, Q13424): below the threshold; pKd (SNTG1, Q9NSN8): 3.88; pKd (SNX27, Q96L92): 4.05; pKd (SYNJ2BP, P57105): 4.46
